Reference: patent US20190225692A1 (JUNO THERAPEUTICS, published 2019)

Assays:
[1] = target: T1, HLA-A2/E6 (29-38) tetramer (human; HPV 16); assay: tetramer staining of clonal T cell line, flow cytometry
T1 construct: also called E6(29-38) peptide-MHC tetramer; E6(29-38)-loaded tetramer

[2] = target: HPV 16 E7(11-19) peptide in the context of HLA-A02:01 on target cells (human; HPV 16); assay: cell-based or functional assay
[3] = target: HPV 16 E6(29-38) peptide in the context of HLA-A02:01 on target cells (human; HPV 16); assay: cell-based or functional assay
[4] = target: T1, HLA-A2/E6 (29-38) tetramer; assay: tetramer flow cytometry; transfected Jurkat-derived cells, CD8+ population
Description: For transfection, the CD4+ and CD4+/CD8+ cell mixtures were transiently transfected with TCR-encoding plasmids and 48 hours after transfection, cells were assessed by flow cytometry for (1) binding of the target peptide in the context of an MHC molecule (HLA:A02:01) by staining with an E6(29-38) peptide- or an E7(11-19) peptide-MHC tetramer reagent, and/or (2) CD8+ independent binding of the target by co-staining the tetramer-labeled cells with an anti-CD8 antibody.

B1: TCR 10 (native, expressed by clonal T cell line) (TCR, V domains shown)
V domain 1: RKEVEQDPGPFNVPEGATVAFNCTYSNSASQSFFWYRQDCRKEPKLLMSVYSSGNEDGRFTAQLNRASQYISLLIRDSKLSDSATYLCVVNFPSRGAGGTSYGKLTFGQGTILTVHP
V domain 2: DVKVTQSSRYLVKRTGEKVFLECVQDMDHENMFWYRQDPGLGLRLIYFSYDVKMKEKGDIPEGYSVSREKKERFSLILESASTNQTSMYLCASSLSLTGNYGYTFGSGTRLTVVE
B1: binds [1].

B2: modified version of TCR 4 (codon optimized, cysteine modified) (TCR)
TCR alpha: DAKTTQPNSMESNEEEPVHLPCNHSTISGTDYIHWYRQLPSQGPEYVIHGLTSNVNNRMASLAIAEDRKSSTLILHRATLRDAAVYYCILLVIRGTSYGKLTFGQGTILTVHPNIQNPDPAVYQLRDSKSSDKSVCLFTDFDSQTNVSQSKDSDVYITDKCVLDMRSMDFKSNSAVAWSNKSDFACANAFNNSIIPEDTFFPSPESSCDVKLVEKSFETDTNLNFQNLSVIGFRILLLKVAGFNLLMTLRLWSS
TCR beta: DTGVSQDPRHKITKRGQNVTFRCDPISEHNRLYWYRQTLGQGPEFLTYFQNEAQLEKSRLLSDRFSAERPKGSFSTLEIQRTEQGDSAMYLCASSPGGGNTEAFFGQGTRLTVVEDLNKVFPPEVAVFEPSEAEISHTQKATLVCLATGFFPDHVELSWWVNGKEVHSGVCTDPQPLKEQPALNDSRYCLSSRLRVSATFWQNPRNHFRCQVQFYGLSENDEWTQDRAKPVTQIVSAEAWGRADCGFTSVSYQQGVLSATILYEILLGKATLYAVLVSALVLMAMVKRKDF
With B2 the “% CD8+/IC IFNγ+; transduced primary CD8+ T cells with T2 cells pulsed with 10 uM E7(11-19) peptide (control peptide), E:T 10:1, 4 h” value [2] was 2.5% and the “% CD8+/IC IFNγ+; transduced primary CD8+ T cells with T2 cells pulsed with 10 uM E6(29-38) peptide, E:T 10:1, 4 h” value [3] was 94.2%.

B3: modified version of TCR 3 (codon optimized, cysteine modified) (TCR)
TCR alpha: AQKITQTQPGMFVQEKEAVTLDCTYDTSDQSYGLFWYKQPSSGEMIFLIYQGSYDEQNATEGRYSLNFQKARKSANLVISASQLGDSAMYFCAMREGRGFKTIFGAGTRLFVKANIQKPDPAVYQLRDSKSSDKSVCLFTDFDSQTNVSQSKDSDVYITDKCVLDMRSMDFKSNSAVAWSNKSDFACANAFNNSIIPADTFFPSPESSCDVKLVEKSFETDTNLNFQNLSVIGFRILLLKVAGFNLLMTLRLWSS
TCR beta: GAGVSQSPRYKVAKRGQDVALRCDPISGHVSLFWYQQALGQGPEFLTYFQNEAQLDKSGLPSDRFFAERPEGSVSTLKIQRTQQEDSAVYLCASSHLAGFTGELFFGEGSRLTVLEDLKNVFPPEVAVFEPSEAEISHTQKATLVCLATGFYPDHVELSWWVNGKEVHSGVCTDPQPLKEQPALNDSRYCLSSRLRVSATFWQNPRNHFRCQVQFYGLSENDEWTQDRAKPVTQIVSAEAWGRADCGFTSESYQQGVLSATILYEILLGKATLYAVLVSALVLMAMVKRKDSRG
In the case of B3, the “% CD8+/IC IFNγ+; transduced primary CD8+ T cells with T2 cells pulsed with 10 uM E7(11-19) peptide (control peptide), E:T 10:1, 4 h” value [2] is reported as 2.51% and the “% CD8+/IC IFNγ+; transduced primary CD8+ T cells with T2 cells pulsed with 10 uM E6(29-38) peptide, E:T 10:1, 4 h” value [3] is reported as 95.1%.

B4: modified version of TCR 8 (codon optimized, cysteine modified) (TCR, V domains shown)
V domain 1: KQEVTQIPAALSVPEGENLVLNCSFTDSAIYNLQWFRQDPGKGLTSLLLIQSSQREQTSGRLNASLDKSSGRSTLYIAASQPGDSATYLCAVRPLGNTPLVFGKGTRLSVIA
V domain 2: KVTQSSRYLVKRTGEKVFLECVQDMDHENMFWYRQDPGLGLRLIYFSYDVKMKEKGDIPEGYSVSREKKERFSLILESASTNQTSMYLCASSLWGASTDTQYFGPGTRLTVLE
In the case of B4, the “% CD8+/IC IFNγ+; transduced primary CD8+ T cells with T2 cells pulsed with 10 uM E7(11-19) peptide (control peptide), E:T 10:1, 4 h” value [2] is reported as 11.4% and the “% CD8+/IC IFNγ+; transduced primary CD8+ T cells with T2 cells pulsed with 10 uM E6(29-38) peptide, E:T 10:1, 4 h” value [3] is reported as 95%.

B5: modified version of TCR 9 (codon optimized, cysteine modified) (TCR)
TCR alpha: AQKITQTQPGMFVQEKEAVTLDCTYDTSDPSYGLFWYKQPSSGEMIFLIYQGSYDQQNATEGRYSLNFQKARKSANLVISASQLGDSAMYFCAMRTAGGTSYGKLTFGQGTILTVHPNIQNPDPAVYQLRDSKSSDKSVCLFTDFDSQTNVSQSKDSDVYITDKCVLDMRSMDFKSNSAVAWSNKSDFACANAFNNSIIPEDTFFPSPESSCDVKLVEKSFETDTNLNFQNLSVIGFRILLLKVAGFNLLMTLRLWSS
TCR beta: NAGVTQTPKFRVLKTGQSMTLLCAQDMNHEYMYWYRQDPGMGLRLIHYSVGEGTTAKGEVPDGYNVSRLKKQNFLLGLESAAPSQTSVYFCASSYFGTAYEQYFGPGTRLTVTEDLKNVFPPEVAVFEPSEAEISHTQKATLVCLATGFYPDHVELSWWVNGKEVHSGVCTDPQPLKEQPALNDSRYCLSSRLRVSATFWQNPRNHFRCQVQFYGLSENDEWTQDRAKPVTQIVSAEAWGRADCGFTSESYQQGVLSATILYEILLGKATLYAVLVSALVLMAMVKRKDSRG
For B5, the “% cells in E6 tet+/CD8+ quadrant” value [4] was 42.5%, the “% cells in E6 tet+/CD8- quadrant” value [4] was 0.051% and the “% cells in E6 tet-/CD8+ quadrant” value [4] was 55.6%. The “% cells in E6 tet-/CD8- quadrant” value [4] was 1.89%, the “% CD8+/IC IFNγ+; transduced primary CD8+ T cells with T2 cells pulsed with 10 uM E7(11-19) peptide (control peptide), E:T 10:1, 4 h” value [2] was 19.5% and the “% CD8+/IC IFNγ+; transduced primary CD8+ T cells with T2 cells pulsed with 10 uM E6(29-38) peptide, E:T 10:1, 4 h” value [3] was 91.1%.
